Results on 15 molecules are retold here after paper PMC9396398, “Crystal structure of Ankyrin-G in complex with a fragment of Neurofascin reveals binding mechanisms required for integrity of the axon initial segment” (The Journal of Biological Chemistry, 2022).

Experiment [1] has as its target T1, AnkG ANK repeats (residues 38-855, R1-24) (UniProt O70511 38-855).
T1 chain: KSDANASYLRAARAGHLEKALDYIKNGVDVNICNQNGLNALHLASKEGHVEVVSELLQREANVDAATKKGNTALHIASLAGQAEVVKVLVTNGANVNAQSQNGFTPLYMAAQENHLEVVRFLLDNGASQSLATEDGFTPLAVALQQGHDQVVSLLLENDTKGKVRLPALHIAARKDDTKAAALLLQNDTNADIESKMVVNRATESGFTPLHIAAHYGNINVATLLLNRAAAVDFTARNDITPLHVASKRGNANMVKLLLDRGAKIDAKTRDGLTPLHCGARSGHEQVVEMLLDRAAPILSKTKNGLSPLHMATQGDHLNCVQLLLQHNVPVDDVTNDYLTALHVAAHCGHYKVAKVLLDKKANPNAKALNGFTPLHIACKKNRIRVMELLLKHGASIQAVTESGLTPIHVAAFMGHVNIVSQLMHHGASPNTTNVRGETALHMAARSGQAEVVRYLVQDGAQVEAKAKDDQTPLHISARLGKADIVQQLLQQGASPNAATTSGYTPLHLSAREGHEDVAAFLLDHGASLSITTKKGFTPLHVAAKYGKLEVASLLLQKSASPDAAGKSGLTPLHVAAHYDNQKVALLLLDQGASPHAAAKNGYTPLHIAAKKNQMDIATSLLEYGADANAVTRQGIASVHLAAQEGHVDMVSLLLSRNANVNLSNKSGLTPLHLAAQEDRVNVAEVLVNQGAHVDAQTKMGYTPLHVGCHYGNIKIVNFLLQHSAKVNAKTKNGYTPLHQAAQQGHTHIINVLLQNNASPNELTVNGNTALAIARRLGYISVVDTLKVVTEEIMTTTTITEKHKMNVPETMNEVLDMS
The experiment is described as follows: ITC. (In general: Isothermal titration calorimetry measures the heat released or taken up as one component is titrated into another.)

The target in experiment [2] is T1, AnkG ANK repeats (residues 38-855, …). Kind of experiment: ITC.
Experiment [3] has as its target T2, AnkG ANK repeats (residues 38-855, R1-24) (UniProt O70511 38-855).
T2 construct: Ankyrin-G (AnkG), ANK repeats R1-24, residues 38-855; In human Q12955 the same residues seem to stand 8 lower (I277 here = I269 there); Cloned into a modified pET32a vector; the tag is said to be removed only for the crystallisation proteins; also called AnkG R1-24; Ankyrin-G ankyrin repeats; source: E. coli BL21 (DE3), purified (Ni-NTA, size-exclusion chromatography)
T2 sequence (looked up): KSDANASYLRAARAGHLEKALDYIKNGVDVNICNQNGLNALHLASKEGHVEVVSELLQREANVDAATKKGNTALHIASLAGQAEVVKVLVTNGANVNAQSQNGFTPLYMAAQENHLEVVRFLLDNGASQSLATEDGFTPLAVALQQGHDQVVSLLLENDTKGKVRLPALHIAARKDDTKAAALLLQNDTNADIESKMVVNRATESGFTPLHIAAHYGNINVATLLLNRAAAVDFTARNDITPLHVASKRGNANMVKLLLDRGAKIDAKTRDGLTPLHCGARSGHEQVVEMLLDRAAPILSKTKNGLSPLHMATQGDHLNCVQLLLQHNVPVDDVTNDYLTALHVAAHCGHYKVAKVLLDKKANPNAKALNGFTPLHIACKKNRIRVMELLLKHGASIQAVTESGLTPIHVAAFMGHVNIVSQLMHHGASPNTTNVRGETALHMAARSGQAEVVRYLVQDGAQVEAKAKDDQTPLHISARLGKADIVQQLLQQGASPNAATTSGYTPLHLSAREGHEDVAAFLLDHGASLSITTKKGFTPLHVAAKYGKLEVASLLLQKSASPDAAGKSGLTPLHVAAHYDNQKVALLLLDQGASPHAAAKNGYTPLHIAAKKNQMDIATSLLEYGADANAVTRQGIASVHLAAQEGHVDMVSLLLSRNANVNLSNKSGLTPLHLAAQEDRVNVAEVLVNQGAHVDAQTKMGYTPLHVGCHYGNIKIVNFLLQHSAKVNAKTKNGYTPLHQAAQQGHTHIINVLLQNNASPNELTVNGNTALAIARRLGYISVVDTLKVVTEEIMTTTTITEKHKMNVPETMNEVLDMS
The experiment is described as follows: ITC; VP-ITC at 25 °C; 50 mM Tris, 100 mM NaCl, 1 mM EDTA, 1 mM DTT, pH 7.8; Nfasc proteins (200 μM) in the syringe, AnkG proteins (20 μM) in the cell; one-site binding model. The conditions noted are these: both partners purified.

The target in experiment [4] is T1, AnkG ANK repeats (residues 38-855, …). The experiment is described as follows: ITC.

Read-outs that look alike come from different tables or passages of the source. Some results are limits rather than exact numbers.

In the case of GEGQFNEDGSFQGQYTV (domain or fragment) [Nfasc 1198 to 1214 I1209Q], the Kd (usually a measure of binding affinity in units of concentration) in experiment [1] stood at 1000 nM.

Molecule GEGQFNEDGSFIGQYAV [Nfasc 1198-1214 T1213A] displayed a dissociation constant Kd in experiment [1] of 460 nM.

B1: NrCAM (domain or fragment)
chain: RRNKGGKYPVKEKEDAHADPEIQPMKEDDGTFGEYSDAEDHKPLKKGSRTPSDRTVKKEDSDDSLVDYGEGVNGQFNEDGSFIGQYSGKKEKEPAEGNESSEAPSPVNAMNSFV
With B1, in experiment [2], the affinity, expressed as Kd, was 700 nM.

GEGQFAEDGSFIGQYTV [Nfasc 1198-1214 N1203A] showed a Kd in experiment [1] of 260 nM.

B2: Nfasc 1198 to 1214 E1204A (domain or fragment, UniProt P97685 1198-1214, looked up)
chain: GEGQFNADGSFIGQYTV
notes: source: E. coli BL21 (DE3), purified (Ni-NTA, size-exclusion chromatography)
In the case of B2, the “fold decrease in binding affinity against Nfasc 1198 to 1214 WT” value in experiment [3] was approximately 27 fold. Also, in experiment [1], the Kd was 9200 nM.

B3: Nfasc 1198 to 1214 F1202Q (domain or fragment, UniProt P97685 1198-1214, looked up)
chain: GEGQQNEDGSFIGQYTV
notes: as for B2
On to B3, for which, in experiment [3], the “fold decrease in binding against Nfasc 1198 to 1214 WT” value was more than 20 fold. Binding in experiment [1] was put at a Kd of 7100 nM.

B4: Nfasc 1198 to 1214 Y1212E (domain or fragment, UniProt P97685 1198-1214, looked up)
chain: GEGQFNEDGSFIGQETV
notes: also called Y1212E phosphorylation mimic variant; source: E. coli BL21 (DE3), purified (Ni-NTA, size-exclusion chromatography)
As to B4, in experiment [3], the “fold decrease in binding against Nfasc 1198 to 1214 WT” value was approximately 9 fold. In experiment [1], this molecule returned a Kd of 3200 nM.

Turning to GEGQFNEDGAFIGQYTV [Nfasc 1198-1214 S1207A], in experiment [1], the Kd was 1200 nM.

The molecule GEGQFNEDGSFIGQYTV (domain or fragment) [Nfasc 1198 to 1214 WT] registered a dissociation constant (Kd) in experiment [4] of 340 nM.

GEGQFNEKGSFIGQYTV (domain or fragment) [Nfasc 1198 to 1214 D1205K]: binding in experiment [1] was put at a Kd of 7700 nM. In other words, the single-digit micromolar range.

In the case of GEGQFNEDGSQIGQYTV (domain or fragment) [Nfasc 1198 to 1214 F1208Q], the Kd in experiment [1] is 1400 nM.

For the molecule SDDSLADYGGSVDVQFNEDGSFIGQYSG (domain or fragment) [L1CAM (construct of the ITC assay)], binding in experiment [2] was characterised by a dissociation constant (Kd) of 1100 nM. In other words, the single-digit micromolar range.

B5: CHL1 (domain or fragment)
chain: IEIPSSVQQVPTIIKQSKVQVAFPFDEYFQIECEAKGNPEPTFSWTKDGNPFYFTDHRIIPSNNSGTFRIPNEGHISHFQGKYRCFASNKLGIAMSEEIEFIVPSVPKFPKEKIDPLEVEEGDPIVLPCNPPKGLPPLHIYWMNIELEHIEQDERVYMSQKGDLYFANVEEKDSRNDYCCFAAFPRLRTIVQKMPMKLTVNSSNSIKQRKPKLLLPPTESGSESSITILKGEILLLECFAEGLPTPQVDWNKIGGDLPKGRETKENYGKTLKIENVSYQDKGNYRCTASNFLGTATHDFHVIVEEPPRWTKKPQSAVYSTGSNGILLCEAEGEPQPTIKWRVNGSPVDNHPFAGDVVFPREISFTNLQPNHTAVYQCEASNVHGTILANANIDVVDVRPLIQTKDGENYATVVGYSAFLHCEFFASPEAVVSWQKVEEVKPLEGRRYHIYENGTLQINRTTEEDAGSYSCWVENAIGKTAVTANLDIRNATKLRVSPKNPRIPKLHMLELHCESKCDSHLKHSLKLSWSKDGEAFEINGTEDGRIIIDGANLTISNVTLEDQGIYCCSAHTALDSAADITQVTVLDVPDPPENLHLSERQNRSVRLTWEAGADHNSNISEYIVEFEGNKEEPGRWEELTRVQGKKTTVILPLAPFVRYQFRVIAVNEVGRSQPSQPSDHHETPPAAPDRNPQNIRVQASQPKEMIIKWEPLKSMEQNGPGLEYRVTWKPQGAPVEWEEETVTNHTLRVMTPAVYAPYDVKVQAINQLGSGPDPQSVTLYSGEDYPDTAPVIHGVDVINSTLVKVTWSTVPKDRVHGRLKGYQINWWKTKSLLDGRTHPKEVNILRFSGQRNSGMVPSLDAFSEFHLTVLAYNSKGAGPESEPYIFQTPEGVPEQPTFLKVIKVDKDTATLSWGLPKKLNGNLTGYLLQYQIINDTYEIGELNDINITTPSKPSWHLSNLNATTKYKFYLRACTSQGCGKPITEESSTLGEGSKGIGKISGVNLTQKTHPIEVFEPGAEHIVRLMTKNWGDNDSIFQDVIETRGREYAGLYDDISTQGWFIGLMCAIALLTLLLLTVCFVKRNRGGKYSVKEKEDLHPDPEIQSVKDETFGEYSDSDEKPLKGSLRSLNRDMQPTESADSLVEYGEGDHGLFSEDGSFIGAYAGSKEKGSVESNGSSTATFPLRA
In turn, B5 registered a Kd in experiment [2] of 900 nM.

B6: full-length Nfasc cytoplasmic tail (residues 1132-1240) (domain or fragment)
chain: KRSRGGKYPVREKKDVPLGPEDPKEEDGSFDYSDEDNKPLQGSQTSLDGTIKQQESDDSLVDYGEGGEGQFNEDGSFIGQYTVRKDKEETEGNESSEATSPVNAIYSLA
In the case of B6, binding in experiment [4] was characterised by a dissociation constant (Kd) of 930 nM. In other words, the sub-micromolar range.

GEGQFNEAGSFIGQYTV (domain or fragment) [Nfasc 1198 to 1214 D1205A]: binding in experiment [1] was put at a Kd of 1300 nM. This lies in the single-digit micromolar range.
